Key:
Assay type in all cases: cell-based, human
MV4-11 target cells = assay: Proliferation of CD33-specific conditional CAR T cells after CAR or TCR stimulation, cell count by flow cytometry; settings: 100 µM MTX vs no MTX, 7 days, FIG. 7
Protocol: The example examines the proliferative capabilities of conditional CAR T cells containing an anti-CD33 antibody having conditional affinity after stimulation of the CAR T cell via either the CAR T cell’s i) CAR or ii) TCR. In addition, these were examined in both the presence and absence of methotrexate (MTX).
The anti-CD33 clone used in this example was P02_D09. In addition, a tool T cell was prepared as described in Example 4, as were untransduced T cells. T cells from one PBMC donor were used for this experiment.
(§1) The target cell line used in this assay was MV4-11, as described in Example 5.
The assays were carried out in 96-well plates by culturing 100,000 T cells with various other reagents (depending on the assay), for each of the different T cells described above. In addition, each of the co-cultures contained either 100 µM MTX or 0 µM MTX. In both conditions, 1 mM leucovorin was supplemented to circumvent MTX toxicity. The T cells were stimulated by CAR or TCR as in Example 6. Cultures were maintained in a final volume of 100 ul of RPMI 1640 medium for 7 days at 37 C with 5% CO2. On day 7, cells were collected and counted via flow cytometry (BD LSR II) using 123Count eBeads (Thermo Fisher Scientific).

MV4-11 cells = assay: Sequential rounds of in vitro cytotoxicity assays with changing MTX concentration (reversible inhibition); settings: Round 0-1 no MTX, then 100 µM MTX at Round 1-2 and Round 2-3; FIGS. 9A and 9B
Protocol: The anti-CD33 clones tested in this example were: P03_A01, P07_C04, and P02_D09. In addition, a tool T cell was prepared as described in Example 4, as were untransduced T cells. Also, each of the different conditional CAR T cells described above was generated in triplicate from PBMC cells from three different human donors. The target cell line used in this assay was MV4-11; these cells were transduced to stably express GFP and firefly luciferase, as described in Example 5.
This experiment involved a series of in vitro cytotoxicity assays, in which co-cultures of T cells and MV4-11 target cells were incubated together for multiple rounds of sequential cytotoxicity assays, in which the MTX concentration changed at different rounds of the assays. In vitro cytotoxicity assays were carried out in 24-well plates by co-culturing 200,000 T cells with 200,000 MV4-11 cells, for each different T cells described above. In addition, each of the co-cultures contained either 100 µM MTX or 0 µM MTX at different times, as indicated by the schematics in FIGS. 9A and 9C. In both conditions, 1 mM leucovorin was supplemented to circumvent MTX toxicity. For each round of the assay, co-cultures were maintained in a final volume of 500 µl of RPMI 1640 medium at 37 C with 5% CO2 for 48 hours. At the end of each round, cells were spun down (250 × g, 10 minutes), supernatant was removed, and fresh media containing fresh MV4-11 cells, leucovorin, and optionally MTX were added according to the schematics shown in FIGS. 9A and 9C. Target cell killing was assessed and plotted as described in Example 4.
In comparing the different panels of FIGS. 9A-9D, note that the schematics shown in FIGS. 9A and 9C indicate the MTX concentration in the co-culture at the start of the assay for a given round, whereas the results from that assay are shown the next round number in FIGS. 9B and 9D, respectively. […]

[1] = test system: MV4-11 target cells (which express CD33); assay: IL-2 and IFN-γ secretion by CD33-specific conditional CAR T cells after CAR or TCR stimulation; settings: activation via anti-CD33 CAR by MV4-11 cells; 100 µM MTX; 24 hours; FIGS. 6A and 6C
Protocol: The example examines the levels secretion of the cytokines IL-2 and IFN-γ by conditional CAR T cells containing an anti-CD33 antibody having conditional affinity, after stimulation of the CAR T cell via either i) the CAR in the CAR T cell or ii) the TCR in the CAR T cell. In addition, these were examined in both the presence and absence of methotrexate (MTX).
The anti-CD33 clone used in this example was P02_D09. […] In addition, a tool T cell was prepared as described in Example 4, as were untransduced T cells.
as §1
Assays were carried out in 96-well plates by culturing 100,000 T cells with various other reagents (depending on the assay), for each of the different T cells described above. Each of the co-cultures contained either 100 µM MTX or 0 µM MTX. In both conditions, 1 mM leucovorin was supplemented to circumvent MTX toxicity. To stimulate the CAR T cells via the anti-CD33 CARs, 100,000 MV4-11 target cells (which express CD33) were included in the culture with the T cells. To stimulate the CAR T cells via the TCR, T cell Activation/Expansion Beads (Miltenyi) were included in the culture with the T cells (i.e. in the absence of target cells). […] The cytokines in the supernatant were measured using U-PLEX Th1/Th2 Combo plates (Meso-Scale Discovery; Rockville, MD) according to the manufacturer’s specifications.

B1: P02_D09: anti-CD33 clone with conditional affinity; VH SEQ ID NO: 35, VL SEQ ID NO: 36; also as scFv in CAR (antibody, V domains shown)
VH: QVQLVESGGGLVQAGGSLRLSCAASRRSSRSWAMHWVRQAPGKGLEWVAVISYDGRLKYYADSVKGRFTISRDNAEYLVYLQMNSLRAEDTAVYYCAAEEGDGGFFDYWGQGTLVTVSS
VL: QSVLTQPPSASGTPGQRVTISCSGSSSNIGSNYVNWYQQLPGTAPKLLIYRNNERPSGVPDRFSGSKSGTSASLAISGLRSEDEADYYCAAWDGSLSGRGVFGTGTKLTVL
modifications: Synthetic Antibody
notes: also as scFv in CAR
**Q.** For B1, which “proliferative ability, CAR stimulation, presence of MTX” value (MV4-11 target cells; CAR stimulation (CD33)) is on record?
**A.** Its value is “dramatically diminished”.

**Q.** And the “proliferation, TCR stimulation, presence of MTX” value (MV4-11 target cells; TCR stimulation (CD3/CD28))?
**A.** Its value is “not affected by MTX”.

**Q.** And the “target cell killing when MTX is added to active CAR T cells ("on" to "off")” value (MV4-11 cells)?
**A.** The value was “quick inhibition rates”.

**Q.** What about the “IL-2 and IFN-γ production, CAR stimulation, presence of MTX” value [1] of the same molecule?
**A.** The value was “reduced back to the level comparable to that of unstimulated T cells”.

Source: patent US20230192839A1, “ANTIBODIES HAVING CONDITIONAL AFFINITY AND METHODS OF USE THEREOF” (PFIZER INC., priority 2017, published 2023)
